Test results from the supplement of paper PMC9112550, “Optimization of the antimicrobial peptide Bac7 by deep mutational scanning” (BMC Biology, 2022).

Tested on: Escherichia coli TOP10
Test: shrunken log2 fold change of peptide-encoding DNA abundance (4.5 h post-induction vs induction); higher = less antimicrobial activity (less host growth inhibition)
Conditions: time post-induction: 4.5 h; library: site-saturation at positions 5, 18, 19, 20
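Also: peptides expressed intracellularly from a pBAD plasmid library in pooled LB shake-flask culture, induced with 0.3% L-arabinose, DNA abundance read by NGS, three biological replicates, DESeq2 with apeglm shrinkage.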

## RRIRTRPPRLPRPRPRPCCDPRP
  shrunken log2 fold change: -0.151

## RRIRLRPPRLPRPRPRPAGSPRP
  shrunken log2 fold change: 0.268

## RRIRIRPPRLPRPRPRPTQQPRP
  shrunken log2 fold change: 0.0936

## RRIRWRPPRLPRPRPRPQFDPRP
  shrunken log2 fold change: 0.0373

## RRIRWRPPRLPRPRPRPCHEPRP
  shrunken log2 fold change: -0.00847

## RRIRWRPPRLPRPRPRPDITPRP
  shrunken log2 fold change: 0.179

## RRIRNRPPRLPRPRPRPMFSPRP
  shrunken log2 fold change: -0.186

## RRIRDRPPRLPRPRPRPHYDPRP
  shrunken log2 fold change: 0.0428

## RRIRVRPPRLPRPRPRPQFHPRP
  shrunken log2 fold change: -0.186

## RRIRDRPPRLPRPRPRPIIRPRP
  shrunken log2 fold change: -0.0604

## RRIRNRPPRLPRPRPRPMNKPRP
  shrunken log2 fold change: 0.0642

## RRIRQRPPRLPRPRPRPYTNPRP
  shrunken log2 fold change: -0.149

## RRIRERPPRLPRPRPRPYYNPRP
  shrunken log2 fold change: -0.675

## RRIRQRPPRLPRPRPRPDVYPRP
  shrunken log2 fold change: 0.0517

## RRIRHRPPRLPRPRPRPRFIPRP
  shrunken log2 fold change: -0.135

## RRIRNRPPRLPRPRPRPDSFPRP
  shrunken log2 fold change: -0.0232

## RRIRYRPPRLPRPRPRPLRFPRP
  shrunken log2 fold change: -0.28

## RRIRFRPPRLPRPRPRPAEYPRP
  shrunken log2 fold change: -0.397

## RRIRFRPPRLPRPRPRPSMYPRP
  shrunken log2 fold change: -0.432

## RRIRYRPPRLPRPRPRPFEMPRP
  shrunken log2 fold change: -0.738

## RRIRARPPRLPRPRPRPVWFPRP
  shrunken log2 fold change: 0.334

## RRIRGRPPRLPRPRPRPNGPPRP
  shrunken log2 fold change: -0.0411

## RRIRERPPRLPRPRPRPAWCPRP
  shrunken log2 fold change: 0.238

## RRIRMRPPRLPRPRPRPLTHPRP
  shrunken log2 fold change: 0.0406

## RRIRNRPPRLPRPRPRPSYWPRP
  shrunken log2 fold change: -0.145

## RRIRPRPPRLPRPRPRPHYKPRP
  shrunken log2 fold change: -0.874

## RRIRLRPPRLPRPRPRPGVIPRP
  shrunken log2 fold change: -0.298

## RRIRERPPRLPRPRPRPGGPPRP
  shrunken log2 fold change: -0.00661

## RRIRTRPPRLPRPRPRPPYIPRP
  shrunken log2 fold change: -0.694

## RRIRHRPPRLPRPRPRPVCSPRP
  shrunken log2 fold change: -0.168

## RRIRTRPPRLPRPRPRPVRCPRP
  shrunken log2 fold change: 0.382

## RRIRIRPPRLPRPRPRPIIPPRP
  shrunken log2 fold change: -0.072

## RRIRLRPPRLPRPRPRPACGPRP
  shrunken log2 fold change: 0.412

## RRIRARPPRLPRPRPRPTVIPRP
  shrunken log2 fold change: 0.0535

## RRIRMRPPRLPRPRPRPTGFPRP
  shrunken log2 fold change: 1.12

## RRIRVRPPRLPRPRPRPRIIPRP
  shrunken log2 fold change: -0.0581

## RRIRARPPRLPRPRPRPQYLPRP
  shrunken log2 fold change: -0.204

## RRIRVRPPRLPRPRPRPSRIPRP
  shrunken log2 fold change: 0.0876

## RRIRPRPPRLPRPRPRPCMAPRP
  shrunken log2 fold change: -0.151

## RRIRMRPPRLPRPRPRPNKAPRP
  shrunken log2 fold change: -0.05

## RRIRVRPPRLPRPRPRPNIQPRP
  shrunken log2 fold change: -0.121

## RRIRLRPPRLPRPRPRPIIYPRP
  shrunken log2 fold change: -0.196

## RRIRERPPRLPRPRPRPGNPPRP
  shrunken log2 fold change: 0.00298

## RRIRNRPPRLPRPRPRPEWDPRP
  shrunken log2 fold change: -0.00515

## RRIRIRPPRLPRPRPRPRESPRP
  shrunken log2 fold change: 0.133

## RRIRRRPPRLPRPRPRPGEGPRP
  shrunken log2 fold change: 0.747

## RRIRCRPPRLPRPRPRPTGMPRP
  shrunken log2 fold change: -0.013

## RRIRLRPPRLPRPRPRPGGNPRP
  shrunken log2 fold change: -0.0421

## RRIRYRPPRLPRPRPRPSTHPRP
  shrunken log2 fold change: 0.396

## RRIRLRPPRLPRPRPRPMYSPRP
  shrunken log2 fold change: -0.364

## RRIRMRPPRLPRPRPRPGYAPRP
  shrunken log2 fold change: 0.341

## RRIRTRPPRLPRPRPRPWCQPRP
  shrunken log2 fold change: -0.134

## RRIRRRPPRLPRPRPRPLYPPRP
  shrunken log2 fold change: -0.0452

## RRIRLRPPRLPRPRPRPLHVPRP
  shrunken log2 fold change: -0.173

## RRIRHRPPRLPRPRPRPQTWPRP
  shrunken log2 fold change: -0.332

## RRIRARPPRLPRPRPRPIYHPRP
  shrunken log2 fold change: -0.359

## RRIRDRPPRLPRPRPRPPWTPRP
  shrunken log2 fold change: 0.238

## RRIRVRPPRLPRPRPRPKGHPRP
  shrunken log2 fold change: -0.0413

## RRIRRRPPRLPRPRPRPVQLPRP
  shrunken log2 fold change: -0.0275

## RRIRYRPPRLPRPRPRPLPSPRP
  shrunken log2 fold change: -0.14

## RRIRSRPPRLPRPRPRPIMKPRP
  shrunken log2 fold change: -0.292

## RRIRRRPPRLPRPRPRPPRHPRP
  shrunken log2 fold change: 1.08

## RRIRKRPPRLPRPRPRPNNVPRP
  shrunken log2 fold change: 0.0112

## RRIRLRPPRLPRPRPRPWYWPRP
  shrunken log2 fold change: 0.134

## RRIRFRPPRLPRPRPRPRLWPRP
  shrunken log2 fold change: 0.497

## RRIRFRPPRLPRPRPRPFHDPRP
  shrunken log2 fold change: -0.149

## RRIRKRPPRLPRPRPRPLLKPRP
  shrunken log2 fold change: 0.00409

## RRIRVRPPRLPRPRPRPESPPRP
  shrunken log2 fold change: 0.232

## RRIRSRPPRLPRPRPRPCWIPRP
  shrunken log2 fold change: -0.0651

## RRIRSRPPRLPRPRPRPGIFPRP
  shrunken log2 fold change: 0.201

## RRIRPRPPRLPRPRPRPGEMPRP
  shrunken log2 fold change: 0.294

## RRIRRRPPRLPRPRPRPPTMPRP
  shrunken log2 fold change: 0.374

## RRIRQRPPRLPRPRPRPRAGPRP
  shrunken log2 fold change: 0.389

## RRIRRRPPRLPRPRPRPACIPRP
  shrunken log2 fold change: 0.542

## RRIRSRPPRLPRPRPRPCMGPRP
  shrunken log2 fold change: -0.403

## RRIRQRPPRLPRPRPRPTIPPRP
  shrunken log2 fold change: -0.205

## RRIRERPPRLPRPRPRPEDNPRP
  shrunken log2 fold change: 0.0813

## RRIRWRPPRLPRPRPRPSCLPRP
  shrunken log2 fold change: -0.0337

## RRIRWRPPRLPRPRPRPIVKPRP
  shrunken log2 fold change: -0.174

## RRIRERPPRLPRPRPRPDATPRP
  shrunken log2 fold change: 0.645

## RRIRTRPPRLPRPRPRPACWPRP
  shrunken log2 fold change: 0.281

## RRIRTRPPRLPRPRPRPSPWPRP
  shrunken log2 fold change: -0.114

## RRIRQRPPRLPRPRPRPNMFPRP
  shrunken log2 fold change: 0.0369

## RRIRMRPPRLPRPRPRPNHQPRP
  shrunken log2 fold change: -0.105

## RRIRLRPPRLPRPRPRPNIGPRP
  shrunken log2 fold change: -0.00419

## RRIRNRPPRLPRPRPRPFPFPRP
  shrunken log2 fold change: -0.22

## RRIRVRPPRLPRPRPRPYSIPRP
  shrunken log2 fold change: 0.0569

## RRIRARPPRLPRPRPRPSFDPRP
  shrunken log2 fold change: 0.103

## RRIRLRPPRLPRPRPRPCWWPRP
  shrunken log2 fold change: 0.26

## RRIRGRPPRLPRPRPRPHYTPRP
  shrunken log2 fold change: -0.379

## RRIRERPPRLPRPRPRPLIYPRP
  shrunken log2 fold change: -0.682

## RRIRKRPPRLPRPRPRPIHSPRP
  shrunken log2 fold change: -0.00784

## RRIRWRPPRLPRPRPRPKYVPRP
  shrunken log2 fold change: -0.0314

## RRIRIRPPRLPRPRPRPPQAPRP
  shrunken log2 fold change: 0.639

## RRIRCRPPRLPRPRPRPMPWPRP
  shrunken log2 fold change: 0.0515

## RRIRRRPPRLPRPRPRPADAPRP
  shrunken log2 fold change: 0.249

## RRIRRRPPRLPRPRPRPCDEPRP
  shrunken log2 fold change: 0.197

## RRIRNRPPRLPRPRPRPKPPPRP
  shrunken log2 fold change: 0.436

## RRIRVRPPRLPRPRPRPIKKPRP
  shrunken log2 fold change: -0.015

## RRIRGRPPRLPRPRPRPMNTPRP
  shrunken log2 fold change: 0.632

## RRIRARPPRLPRPRPRPIGQPRP
  shrunken log2 fold change: 0.34

## RRIRCRPPRLPRPRPRPYLCPRP
  shrunken log2 fold change: -0.455

## RRIRTRPPRLPRPRPRPRNAPRP
  shrunken log2 fold change: 0.0522

## RRIRMRPPRLPRPRPRPTGVPRP
  shrunken log2 fold change: 0.224

## RRIRHRPPRLPRPRPRPYQNPRP
  shrunken log2 fold change: 0.0439

## RRIRTRPPRLPRPRPRPWIEPRP
  shrunken log2 fold change: -0.042

## RRIRFRPPRLPRPRPRPPKKPRP
  shrunken log2 fold change: 0.847

## RRIRCRPPRLPRPRPRPDEGPRP
  shrunken log2 fold change: -0.00232

## RRIRHRPPRLPRPRPRPPNPPRP
  shrunken log2 fold change: 0.238

## RRIRWRPPRLPRPRPRPASKPRP
  shrunken log2 fold change: 0.294

## RRIRVRPPRLPRPRPRPHWEPRP
  shrunken log2 fold change: -0.0118

## RRIRMRPPRLPRPRPRPMVEPRP
  shrunken log2 fold change: 0.0167

## RRIRKRPPRLPRPRPRPMNEPRP
  shrunken log2 fold change: 0.22

## RRIRARPPRLPRPRPRPQRRPRP
  shrunken log2 fold change: 0.366

## RRIRRRPPRLPRPRPRPFNLPRP
  shrunken log2 fold change: -0.109

## RRIRDRPPRLPRPRPRPNNSPRP
  shrunken log2 fold change: -0.422

## RRIRRRPPRLPRPRPRPYVSPRP
  shrunken log2 fold change: -0.00885

## RRIRWRPPRLPRPRPRPLPWPRP
  shrunken log2 fold change: 0.244

## RRIRVRPPRLPRPRPRPTGDPRP
  shrunken log2 fold change: -0.0504

## RRIRFRPPRLPRPRPRPYWFPRP
  shrunken log2 fold change: -0.0527

## RRIRVRPPRLPRPRPRPHSLPRP
  shrunken log2 fold change: -0.232

## RRIRGRPPRLPRPRPRPAEIPRP
  shrunken log2 fold change: 0.076

## RRIRYRPPRLPRPRPRPPRGPRP
  shrunken log2 fold change: 0.284

## RRIRMRPPRLPRPRPRPAIPPRP
  shrunken log2 fold change: 0.0268

## RRIRIRPPRLPRPRPRPQRNPRP
  shrunken log2 fold change: -0.188

## RRIRLRPPRLPRPRPRPTLPPRP
  shrunken log2 fold change: 0.223

## RRIRDRPPRLPRPRPRPFDPPRP
  shrunken log2 fold change: -0.119

## RRIRSRPPRLPRPRPRPICFPRP
  shrunken log2 fold change: -0.15

## RRIRERPPRLPRPRPRPVTYPRP
  shrunken log2 fold change: -0.17

## RRIRRRPPRLPRPRPRPCPPPRP
  shrunken log2 fold change: 0.0965

## RRIRSRPPRLPRPRPRPALAPRP
  shrunken log2 fold change: 0.419

## RRIRYRPPRLPRPRPRPANTPRP
  shrunken log2 fold change: -0.589

## RRIRMRPPRLPRPRPRPRGFPRP
  shrunken log2 fold change: 0.045

## RRIRGRPPRLPRPRPRPSNQPRP
  shrunken log2 fold change: 0.0776

## RRIRHRPPRLPRPRPRPFQWPRP
  shrunken log2 fold change: -0.139

## RRIRTRPPRLPRPRPRPTLFPRP
  shrunken log2 fold change: -0.113

## RRIRARPPRLPRPRPRPGKLPRP
  shrunken log2 fold change: 0.149

## RRIRIRPPRLPRPRPRPYEVPRP
  shrunken log2 fold change: -0.248

## RRIRERPPRLPRPRPRPVETPRP
  shrunken log2 fold change: -0.02

## RRIRNRPPRLPRPRPRPVHTPRP
  shrunken log2 fold change: 0.0171

## RRIRVRPPRLPRPRPRPGYIPRP
  shrunken log2 fold change: -0.608

## RRIRDRPPRLPRPRPRPEMMPRP
  shrunken log2 fold change: 0.71

## RRIRDRPPRLPRPRPRPNEYPRP
  shrunken log2 fold change: 0.0406

## RRIRRRPPRLPRPRPRPNSAPRP
  shrunken log2 fold change: 0.282

## RRIRQRPPRLPRPRPRPAVPPRP
  shrunken log2 fold change: -0.0193

## RRIRERPPRLPRPRPRPSIFPRP
  shrunken log2 fold change: -0.343

## RRIRQRPPRLPRPRPRPYRRPRP
  shrunken log2 fold change: 0.0231

## RRIRYRPPRLPRPRPRPKEMPRP
  shrunken log2 fold change: -0.259

## RRIRCRPPRLPRPRPRPLGDPRP
  shrunken log2 fold change: 1.87

## RRIRYRPPRLPRPRPRPSNNPRP
  shrunken log2 fold change: -1.42
